Measured values reported in the DeepSol protein solubility set.

Test: soluble on expression in E. coli; label from the status in PepcDB or PDB records

Sequence | soluble on expression in E. coli
MNTDVRIEKDFLGEKEIPKDAYYGVQTIRATENFPITGYRIHPELIKSLGIVKKSAALANMEVGLLDKEVGQYIVKAADEVIEGKWNDQFIVDPIQGGAGTSINMNANEVIANRALELMGEEKGNYSKISPNSHVNMSQSTNDAFPTATHIAVLSLLNQLIETTKYMQQEFMKKADEFAGVIKMGRTHLQDAVPILLGQEFEAYARVIARDIERIANTRNNLYDINMGATAVGTGLNADPEYISIVTEHLAKFSGHPLRSAQHLVDATQNTDCYTEVSSALKVCMINMSKIANDLRLMASGPRAGLSEIVLPARQPGSSIMPGKVNPVMPEVMNQVAFQVFGNDLTITSASEAGQFELNVMEPVLFFNLIQSISIMTNVFKSFTENCLKGIKANEERMKEYVEKSIGIITAINPHVGYETAAKLAREAYLTGESIRELCIKYGVLTEEQLNEILNPYEMIHPGIAGRK | soluble
MLEVDVVRISVIVPIYNVKLYIERCVRSLMEQTLENIEFIFVNDCTPDDSMDILHYVLEEYPKRREQIKIIEHETNRGISAVRNTGLKNATGQYIIYCDSDDWVEKNMYEKLLVKALETSADIVGCDFFDDYVAHSTIRKQLFPQQSEKCVKKMLRGELHCGTWNKLVIKSLYERTKIDFPEGINMWEDVSTIIPLCFHATKIDYIPEALYHYIHHNVSSYTYSVTEKSLENLVASIQLLESFFLTNQCFKTFGEDLCFMKLTVKLNLLLGSKGELQKKRNMLYSSANRYIFSYSGMSWYWKIALWVASKKMLFCFNVMSCIERIIKKWKLEHHHHHH | not soluble
MFQISELANYRLCKRCSGRIFAYHYHGISNLERGEYLQFAIGCETGNPDFSFVDSKNCDICHGIFDRFDDIYDLVAKKVGDAQYSTFLVGSVFPQDTIRMEEDIQKKFGSSGESIKKEFNREFGKYFSARTGKEYSQDNPDLTILVNAEYLFVDVKIRSIYIYGKYRKFRRDMPQTRWIHRPNGDTVESVIGSVFTRYAGGTNYYLHGSGREDVDVRMLGNGREFVLEVENPRYREFELDPVVKEINTSGKGVEIFDVKFSSHDAVSEVKLEKHRKVYDALVVSDRPIDESRLLEACINLTGKNIYQRTPLRVAQRRSDLVRTRRIDQVDLVGVSANEAEILISAEAGTYIKELVNGDGGRTRPSLSEMYGSPLNVKELDVIKICRGEDLEHHHHHH | soluble
MYNITLPVLGTRLKQIREHVGYSQAQLAEQLNCKQNAISNLELGKGGSLKLLFQVLNFYSNYVFIDLIFSEKFYLISNTEEDEAQKANYNSVIIEIIRQSEKNYENAMSNAKKELEANLQKAINLLQP | not soluble
MTIEDLQAFMKREFPQLGEAFEIVTVDEGSATMRLHADAQHLRPGGTVSGPSLFALADVAAYAAILAHIGPVALAVTTNLNINFLRKPSPGTVEAVAHLLKLGKRLAVLDISLTDGANGELVAHATATYSIPPRLEHHHHHH | soluble
SEITETLCIFIKTPYISEWSLNNAIINAKKYNLNLKVIKIDKIIKNVPERCYLCKKMFFEILTKEKEKYNYDVVVDGTNYDDLFEDRPGLRAKEEFNIGSPFADFKIGKKDILEIAKELNINIPPKET | not soluble
GSHMRIPATIKKKMALPPATPVFTGEKKVEETKITAAIYDEKSVEFKELEVGELESVVRSALALNKKLWIDVVGVHDESLIAKICEFLGIHPLAAEDILNTAQRVKIEDYDDHLFLVLKILLYNETLEIDQLSLVLKKNLVATFEEREYWILDSIRSRLKSGGRMRKLAGDYLAYTILDAVVDSYFEALLKISDEIEVLEDEVVSGDSTLIGKIHSLKREILAFRNAVWPLRDVLSFFTRVEHELIGEEVKVYYRDVYDHAVRLME | soluble
MGHHHHHHSHLSPDRRASLLTSLMLVKRDYRYDRVLFWGRILGLVADYYIAQGLSEDQLAPRKTLYSLNCTEWSLLPPATEEMVAQSSVVKGRFMGDPSYEYEHTELQKVNEGEKVFEEEIVVQIKEETRLVSVIDQIDKAVAIIPRGALFKTPFGPTHVNRTFEGLSLSEAKKLSSYFHFREPVELKNKTLLEKADLDPSLDFMDSLEHDIPKGSWSIQMERGNALVVLRSLLWPGLTFYHAPRTKNYGYVYVGTGEKNMDLPFML | not soluble
MGHHHHHHSHMKDLTDMDKNSPEAWCAAGNCFSLQREHDIAIKFFQRAIQVDPNYAYAYTLLGHEFVLTEELDKALACFRNAIRVNPRHYNAWYGLGMIYYKQEKFSLAEMHFQKALDINPQSSVLLCH | not soluble
MGSDKIHHHHHHMSDTLRRKQAADHAMRHWVHQSRGPVPIGSDAHKQMFCNMLLDTHNPYKPAVIDWPALRPDALRRLTSLPIWDIAVQTEGRASVRVATFASTVRDPLLRAALELDAAEEARHKVVLSKLVQAYGIRLAPEPAYPAPKDAEWAWMVTGFSECIDSFFAFGLFRSAQRSGYFPPELVETFEPVIQEEGRHILFFANWFGWYWRNLSWWRRPWLFARVAAVWAYLIWERIGIARGIDADGVARDANFPANTAATVGNALNPRELIELCLVENARRMAGYDTRLLRPTIVPRLARFALRFIRK | not soluble
MPKESLLRELSALREQLEQQPPLNEEQRAELELLIRDIELKLANEDALNEGSLVDGVNLAVERFEVSHPTLAGTLRSIVQSLANMGI | not soluble
SNAMKKTLILGATPETNRYAYLAAERLKSHGHEFIPVGRKKGEVLGKTIINERPVIEGVDTVTLYINPQNQLSEYNYILSLKPKRVIFNPGTENEELEEILSENGIEPVIGCTLVMLSAGTF | soluble
MRMRLMLLGGGNALGQALIRLGAEEDIGFLAPRPPQDGWDVASLTQLLDDTRPDALINLAYYFDWFQAETVSAARLTHQERSVERLAELCQHHNITLVQPSSYRVFDGSRATAYSEKDEPVPLGLRGQALWRIEQSVRATCPQHVLVRFGWLLDDSADGVLGRFLSRAKEPGELLLADDRRGNPTPVDDAARVIISIVKQLDCEAPLWGTYHYAGHEATTPLALGQAVLTEARLLHPLAIESPTAQAHAARPDAAEEPQHAVLACKKILHTFGIKPRAWRAGLPSLLDRYYRHV | not soluble
MSLSIVEPDLENCFRILIATDNHIGYAEKDPVRGQDSINTFREILELARDHDVDFILLAGDLFHENRPSRTCMHQTIALLREFTLGDKPIEFELLSDPMDGSTPGFSFPAVNYEDPNINIAIPVFSIHGNHDDPQGTGPEGALCALDVLSVSGVLNYFGKSDLVADENAADNPEKGIQIRPVLLRKGTTHVALYGCGNIRDQRMYQELRANKVKMFMPTGGNVPDSEWFNILLVHQNRVRHGPQNYVPENMFDDSMRLVIWGHEHDCRITPESVADKSYFITQPGSSVATSLAPGEAIPKHVGLLSIQGSQFQLEEIPLKTVRPFELDEVVLSYAAEQGAVDLNDRDSITSFLREQVEALILQAKKEGHHHHHH | not soluble
MVLFTRFMLMGIAMPQISRTALVPYSAEQMYQLVNDVQSYPQFLPGCVGSRVLESSPAQMTAAVDVSKAGISKTFTTRNQLTRNQSILMHLVDGPFKKLIGGWKFTPLSPEACRIEFQLDFEFTNKLIELAFGRIFKELASNMVQAFTVRAKEVYRAGLEHHHHHH | not soluble
MERMRSIWKGSIAFGLVNVPVKVYSATEDHDIRFHQVHAKDGGRIKYNRVCSECGNVVQYADIDKAYDSDDGVRVVLTDDDFGKLPAAEKHEIPVLQFVPTEQIDPILFEKSYFLEPDSSSPKAYVLLATALENSDRTALVHFTLRQRTRLAAMRSRDGVLVIQTLLWPDEVRVAEFSSLDGVDK | not soluble
MEIEVKFRVNFEDIKRKIEGLGAKFFGIEEQEDVYFELPSPKLLRVRKINNTGKSYITYKEILDKRNEEFYELEFEVQDPEGAIELFKRLGFKVQGVVKKRRWIYKLNNVTFELNRVEKAGDFLDIEVITSNPEEGKKIIWDVARRLGLKEEDVEPKLYIELINGLEHHHHHH | soluble
GMNSPKNSLYEEKSGHYYNAVNPNLLKHIKKEWKEVLDIGCSSGALGAAIKENGTRVSGIEAFPEAAEQAKEKLDHVVLGDIETMDMPYEEEQFDCVIFGDVLEHLFDPWAVIEKVKPYIKQNGVILASIPNVSHISVLAPLLAGNWTYTEYGLLDKTHIRFFTFNEMLRMFLKAGYSISKVDRVYVDHKMYEPLIEELYGICKKYRLGSGFMAETVVFQYIIEAEKSQL | soluble
MGSDKIHHHHHHMNLSMISASVTMGELQKKLDTLSHNIANSNTTGYKRREASFSDLLFQQVNTNKATQYETGRLTPNGIRVGSGAKVSQTALRMEQGTLTTTDRALDFAIANPSSFFEIETVVDGNPVTRLTRDGAFYLTANPNNDNLLQLVTQNGDYLLDSAGNRINIPATFEEITLTDQGTLQVTMPNGANVQAAQLQLIQVMKPQLLEAVGGNMFQLPDLAALGFAENEVYAAVGAGGGAVVQGTLEGSNVDIGREMTDLIETQRNYQFNARSVSMADQMMGLVNGLRR | not soluble
MIPLLAFAAWSGTGKTTLLKKLIPALCARGIRPGLIKHTHHDMDVDKPGKDSYELRKAGAAQTIVASQQRWALMTETPDEEELDLQFLASRMDTSKLDLILVEGFKHEEIAKIVLFRDGAGHRPEELVIDRHVIAVASDVPLNLDVALLDINDVEGLADFVVEWMQKQNG | soluble
MQEAVNSALPGDVIIVKPGSYYDHVTVTTNNLVIRSESGNPEDTVIEGYNPTADVFTIEADNITLEGFTIMGAGANCSGLCLHGCTNCLIDSNTFFNDFRGIYLKSSLNNDILNNIVIKGGRGISIEESNHNSVSKNKVSECGYGINLLNSKDNRISKNTVAGNKDYGILVQSSDSNTFSRNNASENGRGIHIGNSDGNTLSNNKISLNEVHGLFVCPKSDKNLVYNNYFSNTLNVEANNGTSNVYHKSRTKGENIVGGPYIGGNYWATPEGSGFSETAADNNGDGIADEKYLFETSDYFDPLPLIAYKPPEPVLPTANLSINTPEDYAPLSVQFTDLSENATSRTWDFENDGVIDSPDETPVYTYPSPGTYTVNLTAACENGTDTKLITINVGENNVAEIQPESAPGEESMSTTGSQAEQNSEQEGISSIPGFEMLYGIFCLLAIFLYKESTKLEHHHHHH | not soluble
MGHHHHHHSHMQQAPVVLSTLDKLLNWGRSNSLWPLTYGLACCAIEMMATGGSRFDFDRFGTIFRASPRQSDVMIIAGTLTKKHAEFMRRLYDQMPEPKWVISMGSCANTGGMFNTYATVQGADRVVPVDIYLPGCAPRPETLQYALMVLQDKIRRSKAIKQDAPKRLV | not soluble
VILKDALLMGTKLLKSADIDTPALEAGVLLCRVLNVDRSYLYSHDDYNMTEEEYKKFTLFLEERIKGKPLQYITGHQEFMSLDFIVTPDVLIPRQDTETLVEAVLTHVKSTGLENARILDIGTGSGCIAVSLAHFLKDSRVLALDISEKALEIAETNAKRCGVWDRMFFLKGDALEGLAGIIAQSPFAKDFERKGEGFFDIIVSNPPYIPSEEIKTLHKQVKDYEPRTALDGGIDGLDFYRAITCEAAKLLSTDSLLAFEVGYNQAENVSEFMKESFSAIKVVKDLAGIDRVVMGCRKQLKD | soluble
MGSDKIHHHHHHLNLIWTNLRVPVEEDERQLPLMIARKLKVSQQSISNLRILRRSVDARKKPQLLFSYTLGFSLDIPYKEVNRVLHRVADLKPEPQIMPRPFMKPEKSLKHRPIVVGAGPAGYFAALTLAKGGYAPLVLEQGDDVETRSLKVENFWRTGQLDTESNVQFGEGGAGTFSDGKLTTRIADPRITEVLETFVEQGAPSEILFLAKAHIGTDILKIVTQRLREKIQSLGGEVRFRAKLTGLRHQNGKLVGVEVNHQEVVPAEAVILAIGHSARETYRLLLAQGVHLEQKAFAIGLRIEHPQKLINTSQYGVEFHPKLGPADYQLTYQDTTTGRGAYAFCMCPGGKVVAAASDLERLVTNGMSEYRRDTGIANSALVVTVGKGDFQREHPLAGVEFQEYWEHQAFLAGDRDYKAPAQSVRDFLAKRVTGDFPLPASYTPGIQPVELHRVLPQAVGDVLDRALLSFERKIQGFAGEMGTLTGIETRTSAPVRITRDKMGEALHIQGLFPAGEGAGYAGGIMSAAVDGIRSAEGIMAQYNPAD | not soluble
